These results are taken from patent US20020111475A1 (IMMUNEX, published 2002).

To fix the notation:
T1: flt3 on murine WWF7 cells
T1 sequence (Q00342 whole entry, looked up): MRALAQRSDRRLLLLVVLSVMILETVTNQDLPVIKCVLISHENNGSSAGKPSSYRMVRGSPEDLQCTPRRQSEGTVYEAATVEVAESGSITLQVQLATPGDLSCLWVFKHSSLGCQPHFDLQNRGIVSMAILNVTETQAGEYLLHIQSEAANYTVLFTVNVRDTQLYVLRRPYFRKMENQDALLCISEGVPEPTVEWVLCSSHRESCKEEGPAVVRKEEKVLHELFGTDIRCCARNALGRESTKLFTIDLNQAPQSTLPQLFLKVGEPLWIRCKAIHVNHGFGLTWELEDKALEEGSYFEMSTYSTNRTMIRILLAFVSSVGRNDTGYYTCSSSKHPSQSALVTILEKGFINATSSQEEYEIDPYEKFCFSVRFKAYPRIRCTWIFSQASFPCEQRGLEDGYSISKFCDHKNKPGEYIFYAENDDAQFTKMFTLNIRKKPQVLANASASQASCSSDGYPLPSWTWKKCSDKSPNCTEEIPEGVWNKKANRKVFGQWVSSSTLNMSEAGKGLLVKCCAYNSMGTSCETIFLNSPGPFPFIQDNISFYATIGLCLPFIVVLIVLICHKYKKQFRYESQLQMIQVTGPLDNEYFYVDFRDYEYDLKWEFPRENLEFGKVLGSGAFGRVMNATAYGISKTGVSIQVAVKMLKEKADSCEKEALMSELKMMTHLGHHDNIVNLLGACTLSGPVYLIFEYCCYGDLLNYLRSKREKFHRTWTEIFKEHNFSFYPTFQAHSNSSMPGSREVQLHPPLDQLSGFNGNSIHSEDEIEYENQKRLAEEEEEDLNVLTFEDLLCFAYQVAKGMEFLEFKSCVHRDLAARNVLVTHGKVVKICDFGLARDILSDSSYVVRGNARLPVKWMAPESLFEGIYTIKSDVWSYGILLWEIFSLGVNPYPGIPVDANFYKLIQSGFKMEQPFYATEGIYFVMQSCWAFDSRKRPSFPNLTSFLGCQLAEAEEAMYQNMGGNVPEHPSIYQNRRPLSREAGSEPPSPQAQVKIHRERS

B1: flt3-L mutant F15L (ligand)
chain: LSGTQDCSFQHSPISSDLAVKIRELSDYLLQDYPVTVASNLQDEELCGGLWRLVLAQRWMERLKTVAGSKMQGLLERVNTEIHFVTKCAFQPPPSCLRFVQTNISRLLQETSEQLVALKPWITRQNFARCLELQCQPDSSTLPPPWSPRPLEATAPTAPQPPLLLLLLLPVGLLLLAAAWCLHWQRTRRRTPRPGEQVPPVPSPQDLLLVEH
B2: flt3-L mutant V75A (ligand)
chain: LSGTQDCSFQHSPISSDFAVKIRELSDYLLQDYPVTVASNLQDEELCGGLWRLVLAQRWMERLKTVAGSKMQGLLERANTEIHFVTKCAFQPPPSCLRFVQTNISRLLQETSEQLVALKPWITRQNFARCLELQCQPDSSTLPPPWSPRPLEATAPTAPQPPLLLLLLLPVGLLLLAAAWCLHWQRTRRRTPRPGEQVPPVPSPQDLLLVEH
B3: flt3-L mutant R55C (ligand)
chain: LSGTQDCSFQHSPISSDFAVKIRELSDYLLQDYPVTVASNLQDEELCGGLWRLVLAQCWMERLKTVAGSKMQGLLERVNTEIHFVTKCAFQPPPSCLRFVQTNISRLLQETSEQLVALKPWITRQNFARCLELQCQPDSSTLPPPWSPRPLEATAPTAPQPPLLLLLLLPVGLLLLAAAWCLHWQRTRRRTPRPGEQVPPVPSPQDLLLVEH
B4: flt3-L mutant F15Y (ligand)
chain: LSGTQDCSFQHSPISSDYAVKIRELSDYLLQDYPVTVASNLQDEELCGGLWRLVLAQRWMERLKTVAGSKMQGLLERVNTEIHFVTKCAFQPPPSCLRFVQTNISRLLQETSEQLVALKPWITRQNFARCLELQCQPDSSTLPPPWSPRPLEATAPTAPQPPLLLLLLLPVGLLLLAAAWCLHWQRTRRRTPRPGEQVPPVPSPQDLLLVEH
B5: flt3-L mutant R20C (ligand)
chain: LSGTQDCSFQHSPISSDFAVKICELSDYLLQDYPVTVASNLQDEELCGGLWRLVLAQRWMERLKTVAGSKMQGLLERVNTEIHFVTKCAFQPPPSCLRFVQTNISRLLQETSEQLVALKPWITRQNFARCLELQCQPDSSTLPPPWSPRPLEATAPTAPQPPLLLLLLLPVGLLLLAAAWCLHWQRTRRRTPRPGEQVPPVPSPQDLLLVEH
B6: flt3-L mutant R55L (ligand)
chain: LSGTQDCSFQHSPISSDFAVKIRELSDYLLQDYPVTVASNLQDEELCGGLWRLVLAQLWMERLKTVAGSKMQGLLERVNTEIHFVTKCAFQPPPSCLRFVQTNISRLLQETSEQLVALKPWITRQNFARCLELQCQPDSSTLPPPWSPRPLEATAPTAPQPPLLLLLLLPVGLLLLAAAWCLHWQRTRRRTPRPGEQVPPVPSPQDLLLVEH
B7: flt3-L mutant A64T (ligand)
chain: LSGTQDCSFQHSPISSDFAVKIRELSDYLLQDYPVTVASNLQDEELCGGLWRLVLAQRWMERLKTVTGSKMQGLLERVNTEIHFVTKCAFQPPPSCLRFVQTNISRLLQETSEQLVALKPWITRQNFARCLELQCQPDSSTLPPPWSPRPLEATAPTAPQPPLLLLLLLPVGLLLLAAAWCLHWQRTRRRTPRPGEQVPPVPSPQDLLLVEH
B8: flt3-L mutant F81L (ligand)
chain: LSGTQDCSFQHSPISSDFAVKIRELSDYLLQDYPVTVASNLQDEELCGGLWRLVLAQRWMERLKTVAGSKMQGLLERVNTEIHLVTKCAFQPPPSCLRFVQTNISRLLQETSEQLVALKPWITRQNFARCLELQCQPDSSTLPPPWSPRPLEATAPTAPQPPLLLLLLLPVGLLLLAAAWCLHWQRTRRRTPRPGEQVPPVPSPQDLLLVEH

This assay addresses T1, flt3 on murine WWF7 cells. The assay is described as follows: cell-based or functional assay.
Turning to B1, the “Sp.Ac. MUT / Sp.Ac. WT (WWF7 cell proliferation units/ml per flt3-L ng/ml by ELISA, yeast supernatant)” value is 0 ratio to wild type.
The result for B2 reads 0.18 ratio to wild type; that for B3, 0.05 ratio to wild type.
Turning to B4, the “Sp.Ac. MUT / Sp.Ac. WT (WWF7 cell proliferation units/ml per flt3-L ng/ml by ELISA, yeast supernatant)” value was 0.19 ratio to wild type.
Then B5, with 0.11 ratio to wild type; and B6, with 0.29 ratio to wild type; and B7, with 0.09 ratio to wild type.
B8: the “Sp.Ac. MUT / Sp.Ac. WT (WWF7 cell proliferation units/ml per flt3-L ng/ml by ELISA, yeast supernatant)” value is 0.06 ratio to wild type.
